# B1: plasminogen fragments: plasminogen fragments comprising Kringles 1 to 4 produced by cleavage of plasminogen with PACE4 (protein)
# chain: VIMAENRKSSIIIRMRDVVLFEKKVYLSECKTGNGKNYRGTMSKTKNGITCQKWSSTSPHRPRFSPATHPSEGLEENYCRNPDNDPQGPWCYTTDPEKRYDYCDILECEEECMHCSGENYDGKISKTMSGLECQAWDSQSPHAHGYIPSKFPNKNLKKNYCRNPDRELRPWCFTTDPNKRWELCDIPRCTTPPPSSGPTYQCLKGTGENYRGNVAVTVSGHTCQHWSAQTPHTHNRTPENFPCKNLDENYCRNPDGKRAPWCHTTNSQVRWEYCKIPSCDSSPVSTEQLAPTAPPELTPVVQDCYHGDGQSYRGTSSTTTTGKKCQSWSSMTPHRHQKTPENYPNAGLTMNYCRNPDADKGPWCFTTDPSVRWEYCNL
# Key:
# [1] = test system: Lewis lung cancer cells (LL/2); assay: Test for inhibitory activity to growth of metastasized cancerous focus (weight of the lung); assay type: in vivo, C57B1 mice; conditions: n=6, control 0.44±0.28
# Protocol: The protein fragments prepared as described above were dissolved in a physiological saline and used as a sample for animal tests. As a system for estimating an inhibitory effect to growth of metastasized cancerous focus, cancer capable of metastasis and growth was transplanted to mice where distally metastasized cancerous focus was observed. Lung cancer cells (LL/2; Dainippon Seiyaku K.K.) were subcutaneously transplanted to mice at the back. The animals were bred until a primary cancerous focus grows up to a predetermined size and the primary focus was then removed surgically. […] As a control, mice were administered with a physiological saline alone as used for dissolving the lyophilized sample (test for inhibitory activity to growth of metastasized cancerous focus).
# After completion of each test, mice were dissected. The number of nodes on the lung surface, in case of test for inhibitory activity to metastasis and growth of cancer, or a weight of the lung, for test for inhibitory activity to growth of metastasized cancerous focus, was measured respectively and compared with control groups (Mann Whetney U test). […] In test for inhibitory activity to growth of metastasized cancerous focus, the lung was measured 0.44±0.28 g (n=6) for the control group while it was measured 0.23±0.08 g (n=6) for the group administered with the plasminogen fragment. […]
# [2] = test system: Lung cancer cells (LL/2); assay: Test for inhibitory activity to metastasis and growth of cancer (number of nodes on the lung surface); assay type: in vivo, mice
# Protocol: The protein fragments prepared as described above were dissolved in a physiological saline and used as a sample for animal tests. As a system for estimating an inhibitory effect to growth of metastasized cancerous focus, cancer capable of metastasis and growth was transplanted to mice where distally metastasized cancerous focus was observed. Lung cancer cells (LL/2; Dainippon Seiyaku K.K.) were subcutaneously transplanted to mice at the back. The animals were bred until a primary cancerous focus grows up to a predetermined size and the primary focus was then removed surgically. The sample was administered to mice intraperitoneally at 1 mg/mouse/day for 10 days. […]
# After completion of each test, mice were dissected. The number of nodes on the lung surface, in case of test for inhibitory activity to metastasis and growth of cancer, or a weight of the lung, for test for inhibitory activity to growth of metastasized cancerous focus, was measured respectively and compared with control groups (Mann Whetney U test). […] In test for inhibitory activity to growth of metastasized cancerous focus, the lung was measured 0.44±0.28 g (n=6) for the control group while it was measured 0.23±0.08 g (n=6) for the group administered with the plasminogen fragment.
# [3] = General pharmacological test, effects on the respiratory and circulatory organs; assay type: in vivo; conditions: Beagle dog
# [4] = parameters: species or system mice; conditions: mouse, in vivo, iv
# [5] = test system: bovine aorta endothelial (BAE) cells; assay: Test for inhibitory activity to growth of vascular endothelial cells, bovine aorta endothelial cells; assay type: cell-based; parameters: dose or concentration left out as unconfirmed; conditions: cell count after 72 hours, plasminogen fragments
# Protocol: The activity of the plasminogen fragments was also estimated as described by O'Reilly et al. using bovine aorta endothelial (BAE) cells purchased from Sanko Jun-yaku K.K. BAE cells were cultured for maintenance on a 24-well plate (manufactured by Iwaki Glass K.K.) coated with gelatin in a DMEM basal medium containing 10% fetal calf serum (FCS), 3 ng/ml basic FGF (bFGF), 1% glutamine, 1% penicillin and 1% streptomycin at 5% CO2. BAE cells were plated on a 24-well gelatin-coated plate at 12,500 cells/well and cultured on the basal medium deprived of bFGF for 24 hours. […] contained 5% FCS but was deprived of bFGF and the plasminogen fragments were reacted with the cells at 37° C. for 20 minutes. A physiological saline was used as a negative control whereas angiostatin (Angiostatin, manufactured by Technoclone) was used as a positive control. After reaction, the basal medium containing 5% FCS and 2 ng/ml bFGF was added and the cells were cultured at 37° C. for additional 72 hours. The cells were peeled off the well with trypsin/EDTA solution and counted with Coulter counter (manufactured by Coulter).
molecule,measurement,setting,value
B1,weight of the lung,"[1]; 25 μg/animal intraperitoneally for 10 days, dissected Day 11",0.23 ± 0.08 g
same,weight of the lung,[1]; 1 mg/mouse/day intraperitoneally for 10 days,0.23 ± 0.08 g
same,number of nodes representing metastasis and growth of cancer,"[2]; 1 mg/mouse/day intraperitoneally for 10 days after removal of primary focus, n=6, control 6.3±0.2",2.1 ± 0.8
same,inhibitory activity to metastasis and growth of cancer cells,[2]; mouse model in which Lewis lung cancer was transplanted,had an inhibitory activity to metastasis and growth of cancer cells
same,safety in general pharmacological test (respiratory and circulatory organs),[3],confirmed for their safety
same,safety in single-dose toxicity test,[4],confirmed for their safety
same,inhibitory activity to growth of the vascular endothelial cells,[5],no inhibitory activity
same,inhibitory activity to growth of the vascular endothelial cells,[5]; listed as plasminogen fragment,inhibitory effects to its growth have not been obtained

# From patent US20070117180A1, “Enzyme producing plasma protein fragment having inhibitory activity to metastasis and growth of cancer and plasma protein fragment produced by fragmentation by said enzyme” (priority 1998, published 2007)
